Paper PMC5391116 (PLoS ONE, 2017)

Target: Human MET ECD (extracellular domain) containing a FLIS tag (Homo sapiens, UniProt P08581)
Test: cell-based or functional assay

Sequence of Human MET ECD (extracellular domain) containing a FLIS tag (P08581 25-932): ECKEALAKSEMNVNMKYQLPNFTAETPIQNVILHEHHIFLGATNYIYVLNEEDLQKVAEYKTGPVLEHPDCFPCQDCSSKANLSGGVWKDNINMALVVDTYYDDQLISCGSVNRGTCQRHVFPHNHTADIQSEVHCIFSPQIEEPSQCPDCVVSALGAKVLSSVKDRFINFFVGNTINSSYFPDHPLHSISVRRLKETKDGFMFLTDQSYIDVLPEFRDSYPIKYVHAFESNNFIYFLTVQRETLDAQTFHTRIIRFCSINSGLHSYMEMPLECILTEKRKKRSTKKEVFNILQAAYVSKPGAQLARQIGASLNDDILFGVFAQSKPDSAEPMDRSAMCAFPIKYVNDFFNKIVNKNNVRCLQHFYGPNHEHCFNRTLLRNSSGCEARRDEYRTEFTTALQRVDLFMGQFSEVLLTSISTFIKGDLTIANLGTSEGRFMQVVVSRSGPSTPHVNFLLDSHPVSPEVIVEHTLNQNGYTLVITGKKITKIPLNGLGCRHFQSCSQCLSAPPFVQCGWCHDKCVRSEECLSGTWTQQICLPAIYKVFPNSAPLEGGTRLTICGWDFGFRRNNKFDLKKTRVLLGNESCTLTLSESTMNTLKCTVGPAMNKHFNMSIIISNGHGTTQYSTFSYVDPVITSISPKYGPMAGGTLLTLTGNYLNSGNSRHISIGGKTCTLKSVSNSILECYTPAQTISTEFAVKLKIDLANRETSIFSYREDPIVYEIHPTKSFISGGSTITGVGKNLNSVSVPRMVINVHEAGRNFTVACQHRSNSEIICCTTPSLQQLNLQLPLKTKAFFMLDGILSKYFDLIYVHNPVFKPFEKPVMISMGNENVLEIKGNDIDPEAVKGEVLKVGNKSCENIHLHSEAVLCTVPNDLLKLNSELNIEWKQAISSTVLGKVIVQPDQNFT

B1: IgG1 MET antibody (variable regions from LY2875358 on human IgG1 constant regions) (antibody, V domains shown)
VH: QVQLVQSGAEVKKPGASVKVSCKASGYTFTDYYMHWVRQAPGQGLEWMGRVNPNRRGTTYNQKFEGRVTMTTDTSTSTAYMELRSLRSDDTAVYYCARANWLDYWGQGTTVTVSS
VL: DIQMTQSPSSLSASVGDRVTITCSVSSSVSSIYLHWYQQKPGKAPKLLIYSTSNLASGVPSRFSGSGSGTDFTLTISSLQPEDFATYYCQVYSGYPLTFGGGTKVEIK
B1 was tested, and the “phospho-AKT activity levels in Caki-1 cells (MSD ELISA), various doses of antibody for 15 minutes” value was greater than 8 fold.
